Laboratory results as given in US20230218738A1 (Pfizer, published 2023).

Experiments:
Experiment in all cases: BLI (Octet), F on anti-HIS tip, 20 nM mAb
[1] = target: RSV F protein mutant pXCS776 (RSV A2, UniProt P03420 26-109)
[2] = target: RSV F protein mutant pXCS749 (RSV A2, UniProt P03420 26-109)
[3] = target: RSV F protein mutant pXCS735 (RSV A2, UniProt P03420 26-109)
[4] = target: RSV F protein mutant pXCS875 (RSV A2, UniProt P03420 26-109)
[5] = target: RSV F protein mutant pXCS809 (RSV A2, UniProt P03420 26-109)
DS-Cav1 = DS-Cav1 (UniProt P03420 26-513)
[6] = target: RSV F protein mutant pXCS839 (RSV A2, UniProt P03420 26-109)
[7] = target: RSV F protein mutant pXCS811 (RSV A2, UniProt P03420 26-109)
[8] = target: RSV F protein mutant pXCS897 (RSV A2, UniProt P03420 26-109)
[9] = target: RSV F protein mutant pXCS804 (RSV A2, UniProt P03420 26-109)
[10] = target: RSV F protein mutant pXCS873 (RSV A2, UniProt P03420 26-109)
[11] = target: RSV F protein mutant pXCS878 (RSV A2, UniProt P03420 26-109)
[12] = target: RSV F protein mutant pXCS874 (RSV A2, UniProt P03420 26-109)
[13] = target: RSV F protein mutant pXCS876 (RSV A2, UniProt P03420 26-109)
[14] = target: RSV F protein mutant pXCS879 (RSV A2, UniProt P03420 26-109)

B1: MPE8 (antibody, V domains shown)
VH: EVQLVESGGGLVKPGGSLRLSCAASGFTFSSYSMNWVRQAPGKGLEWVSSISASSSYSDYADSAKGRFTISRDNAKTSLFLQMNSLRAEDTAIYFCARARATGYSSITPYFDIWGQGTLVTVSS
VL: QSVVTQTPSVSGAPGQRVTISCTGSSSNIGAGYDVHWYQQLPGTAPKLLIYDNNNRPSGVPDRFSASKSGTSASLAITGLQAEDEADYYCQSYDRNLSGVFGTGTKVTVL
notes: also called MPEG
Response (nm shift) [1]: 0.127 nm | Response (nm shift) [2]: 0.206 nm | Response (nm shift) [3]: 0.375 nm

B2: AM22 (antibody, V domains shown)
VH: QVQLVQSGAEVKKPGATVKVSCKISGHTLIKLSIHWVRQAPGKGLEWMGGYEGEVDEIFYAQKFQHRLTVIADTATDTVYMELGRLTSDDTAVYFCGTLGVTVTEAGLGIDDYWGQGTLVTVSS
VL: EIVLTQSPGTLSLSPGERATLSCRASQIVSRNHLAWYQQKPGQAPRLLIFGASSRATGIPVRFSGSGSGTDFTLTINGLAPEDFAVYYCLSSDSSIFTFGPGTKVDFK
Response (nm shift) [4]: 0.205 nm | Response (nm shift) [5]: 0.185 nm | Response (nm shift) (DS-Cav1): 0.469 nm | Response (nm shift) [6]: 0.39 nm | Response (nm shift) [7]: 0.322 nm | Response (nm shift) [8]: 0.406 nm | Response (nm shift) [9]: 0.267 nm | Response (nm shift) [10]: 0.192 nm | Response (nm shift) [11]: 0.324 nm | Response (nm shift) [12]: 0.444 nm | Response (nm shift) [13]: 0.268 nm | Response (nm shift) [14]: 0.351 nm
